Data reported in PMC2480485 (Journal of Biomolecular Nmr, 2008).

Tests used:
[1] = biological target: mouse Src SH3 domain, residues 85-142 (mouse) (UniProt P05480); assay: NMR titration
[2] = biological target: mouse Src SH3 domain, residues 85-142 (mouse) (UniProt P05480); assay: paramagnetic relaxation enhancement NMR
[3] = biological target: mouse Src SH3 domain, residues 85-142 (mouse, UniProt P05480-2 85-142); assay: NMR titration

Molecule: peptide P3Tm (RALP-TOAC-IPKL, TOAC within the core binding motif of the FAK peptide)
- Kd [1]: 900 µM
- fraction of protein bound [2]: 44%

Molecule: Ac-RALPSIPKL-NH2 [peptide P3 (unlabelled control peptide derived from focal adhesion kinase, RALPSIPKL)]
- Kd [3]: 56 ± 11 µM
